Assay results published in patent US20200262920A1 (AMPHIVENA THERAPEUTICS, published 2020).
Where a chain is given by its changes, count along the chain named. Values belong to the binder of their own block, whether it stands above or below them.

What was measured:
human CD33 [1] = target: T1, human CD33 (human, UniProt P20138 18-364); experiment: flow cytometry, HL-60 cells
T1 construct: whole, on cells; also called huCD33; CD33 on HL-60, KG-1, KG-1a, U-937 cells

cynomolgus CD33 = target: T2, cynomolgus CD33 (cynomolgus, UniProt A0A7N9ICR5 17-359); experiment: ratio of KD by flow cytometry on CHO cells expressing cynomolgus CD33 vs human CD33
T2 construct: whole, on cells; also called cynoCD33; cyno CD33
Protocol: (§1) Cells were incubated with 100 μL of serial dilutions of CD33/CD3 2×2 T-cell engagers. After washing three times with FACS buffer the cells were incubated with 0.1 mL of 10 μg/mL mouse monoclonal anti-His antibody in the same buffer for 45 min on ice. After a second washing cycle, the cells were incubated with 0.1 mL of 15 μg/mL FITC-conjugated goat anti-mouse IgG antibodies under the same conditions as before. As a control, cells were incubated with the anti-His IgG followed by the FITC-conjugated goat anti-mouse IgG antibodies without anti-CD33 2×2 T-cell engagers. The cells were then washed again and resuspended in 0.2 mL of FACS buffer containing 2 μg/mL propidium iodide (PI) in order to exclude dead cells. The fluorescence of 1×10⁴ living cells was measured using a Beckman-Coulter FC500 MPL flow cytometer using the MXP software (Beckman-Coulter, Krefeld, Germany) or a Millipore Guava EasyCyte flow cytometer using the Incyte software (Merck Millipore, Schwalbach, Germany). Mean fluorescence intensities of the cell samples were calculated using CXP software (Beckman-Coulter, Krefeld, Germany) or Incyte software (Merck Millipore, Schwalbach, Germany). After subtracting the fluorescence intensity values of the cells stained with the secondary and tertiary reagents alone the values were used for calculation of the KD values with the equation for one-site binding (hyperbola) of the GraphPad Prism (version 6.00 for Windows, GraphPad Software, La Jolla Calif. USA).
CD3 binding affinity and crossreactivity were evaluated in titration and flow cytometric experiments on CD3⁺ Jurkat cells (provided by Dr. Moldenhauer, DKFZ Heidelberg; human acute T-cell leukemia) and the cynomolgus CD3⁺ HSC-F cell line (JCRB, cat.:JCRB 1164). […] The KD ratio of crossreactivity was calculated using the KD values determined on the CHO cell lines expressing either recombinant human or recombinant cynomolgus antigens.

human CD3 [2] = target: T3, human CD3 (human, UniProt P07766 23-207; P09693 23-182; P04234 22-171; P20963 22-164); experiment: flow cytometry titration, T cells (human CD3+)
T3 construct: whole, on cells; the description names the epsilon chain only 'in certain instances'; also called hu CD3; CD3 on T cells

human CD3 [3] = target: T3, human CD3; experiment: cell-based or functional assay
human CD33 [4] = target: T1, human CD33; experiment: flow cytometry titration, KG-1 cells
Protocol: as §1, with “USA). […]” for “USA).”

human CD3 [5] = target: T3, human CD3; experiment: flow cytometry, human T-cells
human CD33 [6] = target: T1, human CD33; experiment: flow cytometry titration, HL-60 cells
Protocol: as §1, with “USA). […]” for “USA).”

human CD33 [7] = target: T1, human CD33; experiment: cell-based or functional assay
human CD33 [8] = target: T1, human CD33; experiment: flow cytometry titration, U-937 cells
Protocol: as §1, with “USA). […]” for “USA).”

T1 sequence (P20138 18-364): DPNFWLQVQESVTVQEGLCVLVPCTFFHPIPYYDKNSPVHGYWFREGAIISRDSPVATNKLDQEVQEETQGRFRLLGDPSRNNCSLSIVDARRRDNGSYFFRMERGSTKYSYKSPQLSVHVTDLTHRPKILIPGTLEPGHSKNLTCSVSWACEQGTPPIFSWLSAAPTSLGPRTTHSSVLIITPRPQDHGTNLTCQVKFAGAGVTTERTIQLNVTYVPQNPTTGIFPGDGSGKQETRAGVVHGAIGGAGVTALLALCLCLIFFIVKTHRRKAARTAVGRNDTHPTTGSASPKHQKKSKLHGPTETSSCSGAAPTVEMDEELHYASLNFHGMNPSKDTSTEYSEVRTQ
T3 sequence (P07766 23-207, chain 1 of 4): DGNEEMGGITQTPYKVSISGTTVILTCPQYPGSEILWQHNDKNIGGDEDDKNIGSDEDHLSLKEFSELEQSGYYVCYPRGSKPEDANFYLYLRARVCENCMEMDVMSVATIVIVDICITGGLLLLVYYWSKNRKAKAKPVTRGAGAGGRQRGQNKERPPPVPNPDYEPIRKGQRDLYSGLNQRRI
T3 sequence (P09693 23-182, chain 2 of 4): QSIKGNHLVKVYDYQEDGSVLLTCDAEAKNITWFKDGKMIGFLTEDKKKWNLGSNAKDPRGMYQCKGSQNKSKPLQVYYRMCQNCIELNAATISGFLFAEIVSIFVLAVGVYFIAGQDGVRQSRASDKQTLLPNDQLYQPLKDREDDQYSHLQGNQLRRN
T3 sequence (P04234 22-171, chain 3 of 4): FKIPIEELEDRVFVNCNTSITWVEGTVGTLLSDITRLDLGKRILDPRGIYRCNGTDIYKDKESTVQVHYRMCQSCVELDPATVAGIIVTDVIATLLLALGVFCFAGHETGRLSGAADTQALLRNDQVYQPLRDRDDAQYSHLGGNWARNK
T3 sequence (P20963 22-164, chain 4 of 4): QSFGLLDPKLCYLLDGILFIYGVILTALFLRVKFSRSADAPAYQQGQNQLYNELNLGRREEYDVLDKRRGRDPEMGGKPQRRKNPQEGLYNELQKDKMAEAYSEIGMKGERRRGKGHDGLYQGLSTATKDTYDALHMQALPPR

B1: CD33/CD3 2×2 T-cell engager 07 (bispecific antibody)
chain: DIQMTQSPSSLSASVGDRVTITCRSSTGAVTTSNYANWVQQKPGKAPKALIGGTNKRAPGVPSRFSGSLIGDKATLTISSLQPEDFATYYCALWYSNLWVFGQGTKVEIKGGSGGSQVQLQESGGGVVQPGRSLRLSCAASGFSFSNYGIHWVRQAPGKGLEWVALISYDGNKKFYADSVKGRFAISRDTSKNTVDLQMTSLRPEDTAVYYCAKDRLESAAFDYWGQGTLVTVSSGGSGGSSYELTQPPSVSVAPGQTAMITCGGNNIGSTTVHWYQQKPGQAPVLVVYDDNERPSGIPERFSGSNSGSTATLTINRVEAGDEADYYCQVWDSGSDHVVFGGGTKLTVLGGSGGSEVQLVESGGGLVQPGGSLRLSCAASGFTFSTYAMNWVRQAPGKGLEWVGRIRSKYNNYATYYADSVKDRFTISRDDSKNSLYLQMNSLKTEDTAVYYCARHGNFGNSYVSYFAYWGQGTLVTVSSAAAGSHHHHHH
notes: Non-covalent homodimer; also called 2×2 T-cell engager 7
Kd (human CD33 [1]): 13.7 nM
KD ratio cynoCD33/huCD33 (cynomolgus CD33): 45.8
Kd (human CD3 [2]): 49.7 nM
CD25 Induction EC50 (human CD3 [3]): 0.134 nM
CD69 Induction EC50 (human CD3 [3]): 0.065 nM
T cell Proliferation in PBMC EC50 (human CD3 [3]): 0.05 nM
Kd (human CD33 [4]): 47.9 nM
Kd (human CD3 [5]): 49.7 nM
Kd (human CD33 [6]): 13.7 nM
EC50 on HL-60 (cytotoxicity) (human CD33 [7]): 0.0178 nM
Kd (human CD33 [8]): 47.1 nM

B2: CD33/CD3 2×2 T-cell engager 21 (bispecific antibody)
chain: DIQMTQSPSSLSASVGDRVTITCRSSTGAVTTSNYANWVQQKPGKAPKALIGGTNKRAPGVPSRFSGSLIGDKATLTISSLQPEDFATYYCALWYSNLWVFGQGTKVEIKGGSGGSQVQLVQSGAEVKKPGSSVKVSCKASGGTFSSYAISWVRQAPGQGLEWMGGIYPIFGSANYAQKFQGRVTITADESTSTAYMELSSLRSEDTAVYYCAREYYYDSSEWAFDIWGQGTLVTVSSGGSGQSVLTQPPSASGTPGQRVTISCSGSSSNIGSNIVNWYQQLPGTAPKLLIYSNNQRPSGVPDRFSGSKSGTSASLAISGLQSEDEADYYCAAWDDSLKGYVFGGGTKLTVLGGSGGSEVQLVESGGGLVQPGGSLRLSCAASGFTFSTYAMNWVRQAPGKGLEWVGRIRSKYNNYATYYADSVKDRFTISRDDSKNSLYLQMNSLKTEDTAVYYCARHGNFGNSYVSYFAYWGQGTLVTVSSAAAGSHHHHHH
notes: Non-covalent homodimer
Kd (human CD33 [1]): 9.7 nM
KD ratio cynoCD33/huCD33 (cynomolgus CD33): 0.9
Kd (human CD3 [2]): 2.1 nM
CD69 Induction EC50 (human CD3 [3]): 0.225 nM
T cell Proliferation in PBMC EC50 (human CD3 [3]): 0.5 nM
Kd (human CD33 [4]): 25.1 nM
Kd (human CD3 [5]): 2.1 nM
Kd (human CD33 [6]): 9.7 nM
EC50 on HL-60 (cytotoxicity) (human CD33 [7]): 0.0076 nM
Kd (human CD33 [8]): 80.2 nM

B4: CD33/CD3 2×2 T-cell engager 23 (bispecific antibody)
chain: DIQMTQSPSSLSASVGDRVTITCRSSTGAVTTSNYANWVQQKPGKAPKGLIGGTNKRAPGVPSRFSGSLIGTDFTLTISSLQPEDFATYYCALWYSNLWVFGQGTKVEIKGGSGGSQVQLVQSGAEVKKPGSSVKVSCKASGGTFSSYGISWVRQAPGQGLEWMGGIIPIFGSAHYAQKFQGRVTITADESTSTAYMELSSLRSEDTAVYYCAREYYYDSSEWAFDIWGQGTLVTVSSGGSGQSVLTQPPSASGTPGQRVTISCSGSSSNIGSNTVKWYQQLPGTAPKLLIYSNNQRSSGVPDRFSGSKSGSSASLAISGLQSEDEADYYCAAWDDSLNGYVFGGGTKLTVLGGSGGSEVQLVESGGGLVQPGGSLRLSCAASGFTFSTYAMNWVRQAPGKGLEWVGRIRSKYNNYATYYADSVKDRFTISRDDSKNSLYLQMNSLKTEDTAVYYCARHGNFGNSYVSWFAYWGQGTLVTVSS
notes: Non-covalent homodimer
Kd (human CD33 [1]): 0.4 nM
KD ratio cynoCD33/huCD33 (cynomolgus CD33): 1.9
Kd (human CD3 [2]): 97.2 nM
CD25 Induction EC50 (human CD3 [3]): 0.041 nM
CD69 Induction EC50 (human CD3 [3]): 0.017 nM
T cell Proliferation in PBMC EC50 (human CD3 [3]): 0.037 nM
Kd (human CD33 [4]): 1 nM
Kd (human CD3 [5]): 97.2 nM
Kd (human CD33 [6]): 0.4 nM
EC50 on HL-60 (cytotoxicity) (human CD33 [7]): 0.0028 nM
Kd (human CD33 [8]): 5.1 nM

B5: CD33/CD3 2×2 T-cell engager 20 (bispecific antibody)
chain: DIQMTQSPSSLSASVGDRVTITCRSSTGAVTTSNYANWVQQKPGKAPKGLIGGTNKRAPGVPSRFSGSLIGTDFTLTISSLQPEDFATYYCALWYSNLWVFGQGTKVEIKGGSGGSQVQLVQSGAEVKKPGASVKVSCKASGYTFTSYYMHWVRQAPGQGLEWMGIINPSGGSTSYAQKFQGRVTMTRDTSTSTVYMELSSLRSEDTAVYYCARDVVPAAIDYYGMDVWGQGTTVTVSSGGSGQSVLTQPPSASGTPGQRVTISCSGSSSNIGSNTVNWYQQLPGTAPKLLIYSDNQRPSGVPDRFSGSKSGSSASLAISGLQSDDEADYYCATWDDSLNGAVFGGGTKLTVLGGSGGSEVQLVESGGGLVQPGGSLRLSCAASGFTFSTYAMNWVRQAPGKGLEWVGRIRSKYNNYATYYADSVKDRFTISRDDSKNSLYLQMNSLKTEDTAVYYCARHGNFGNSYVSWFAYWGQGTLVTVSSAAAGSHHHHHH
notes: Non-covalent homodimer
Kd (human CD33 [1]): 4.1 nM
KD ratio cynoCD33/huCD33 (cynomolgus CD33): 33.8
Kd (human CD3 [2]): 144 nM
CD25 Induction EC50 (human CD3 [3]): 0.098 nM
CD69 Induction EC50 (human CD3 [3]): 0.075 nM
T cell Proliferation in PBMC EC50 (human CD3 [3]): 0.038 nM
Kd (human CD33 [4]): 7 nM
Kd (human CD3 [5]): 144 nM
Kd (human CD33 [6]): 4.1 nM
EC50 on HL-60 (cytotoxicity) (human CD33 [7]): 0.01 nM
Kd (human CD33 [8]): 7.2 nM

Continued by falling Kd (human CD33 [1]), values first:

Kd (human CD33 [1]): 5 nM
KD ratio cynoCD33/huCD33 (cynomolgus CD33): 1.9
Kd (human CD3 [2]): 3.3 nM
CD25 Induction EC50 (human CD3 [3]): 0.03 nM
CD69 Induction EC50 (human CD3 [3]): 0.114 nM
T cell Proliferation in PBMC EC50 (human CD3 [3]): 0.03 nM
Kd (human CD33 [4]): 52.5 nM
Kd (human CD3 [5]): 3.3 nM
Kd (human CD33 [6]): 5 nM
Kd (human CD33 [8]): 24.4 nM
B6: CD33/CD3 2×2 T-cell engager 17 (bispecific antibody)
chain: DIQMTQSPSSLSASVGDRVTITCRSSTGAVTTSNYANWVQQKPGKAPKALIGGTNKRAPGVPSRFSGSLIGDKATLTISSLQPEDFATYYCALWYSNLWVFGQGTKVEIKGGSGGSQVQLVQSGAEVKKPGESLKISCKGSGYSFTSYWIGWVRQMPGKGLEWMGIIYPGDSDTRYSPSFQGQVTISADKSISTAYLQWSSLKASDTAMYYCARHKRGSDAFDIWGQGTTVTVSSGGSGQSVLTQPPSVSGAPGQRVTISCTGSSSNIGAGYDVHWYQQLPGTAPKLLIYGNSNRPSGVPDRFSGSKSGTSASLAITGLQAEDEADYYCQSYDSSLSDVVFGGGTKLTVLGGSGGSEVQLVESGGGLVQPGGSLRLSCAASGFTFSTYAMNWVRQAPGKGLEWVGRIRSKYNNYATYYADSVKDRFTISRDDSKNSLYLQMNSLKTEDTAVYYCARHGNFGNSYVSYFAYWGQGTLVTVSSAAAGSHHHHHH
notes: Non-covalent homodimer
EC50 on HL-60 (cytotoxicity) (human CD33 [7]): 0.0184 nM

Kd (human CD33 [1]): 0.7 nM
KD ratio cynoCD33/huCD33 (cynomolgus CD33): 0.6
Kd (human CD3 [2]): 4.1 nM
CD25 Induction EC50 (human CD3 [3]): 0.01 nM
CD69 Induction EC50 (human CD3 [3]): 0.004 nM
T cell Proliferation in PBMC EC50 (human CD3 [3]): 0.007 nM
Kd (human CD33 [4]): 2 nM
Kd (human CD3 [5]): 4.1 nM
Kd (human CD33 [6]): 0.7 nM
Kd (human CD33 [8]): 8.6 nM
B3: CD33/CD3 2×2 T-cell engager 22 (bispecific antibody)
chain: B2 chain with A149G, Y168I, N175H, I275T, N277K, P298S, T312S, K339N
notes: Non-covalent homodimer
EC50 on HL-60 (cytotoxicity) (human CD33 [7]): 0.0032 nM
